One assay addresses T1, GST-Htt-20Q.
T1 chain: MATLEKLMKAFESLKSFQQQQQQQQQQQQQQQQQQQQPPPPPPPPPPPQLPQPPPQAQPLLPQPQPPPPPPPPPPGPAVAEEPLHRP
Description: SPR. In general terms: SPR reads the build-up and loss of mass on a sensor chip optically.

The target of another assay is T2, GST-Atxn1-33Q (UniProt P54253 1-815).
T2 chain: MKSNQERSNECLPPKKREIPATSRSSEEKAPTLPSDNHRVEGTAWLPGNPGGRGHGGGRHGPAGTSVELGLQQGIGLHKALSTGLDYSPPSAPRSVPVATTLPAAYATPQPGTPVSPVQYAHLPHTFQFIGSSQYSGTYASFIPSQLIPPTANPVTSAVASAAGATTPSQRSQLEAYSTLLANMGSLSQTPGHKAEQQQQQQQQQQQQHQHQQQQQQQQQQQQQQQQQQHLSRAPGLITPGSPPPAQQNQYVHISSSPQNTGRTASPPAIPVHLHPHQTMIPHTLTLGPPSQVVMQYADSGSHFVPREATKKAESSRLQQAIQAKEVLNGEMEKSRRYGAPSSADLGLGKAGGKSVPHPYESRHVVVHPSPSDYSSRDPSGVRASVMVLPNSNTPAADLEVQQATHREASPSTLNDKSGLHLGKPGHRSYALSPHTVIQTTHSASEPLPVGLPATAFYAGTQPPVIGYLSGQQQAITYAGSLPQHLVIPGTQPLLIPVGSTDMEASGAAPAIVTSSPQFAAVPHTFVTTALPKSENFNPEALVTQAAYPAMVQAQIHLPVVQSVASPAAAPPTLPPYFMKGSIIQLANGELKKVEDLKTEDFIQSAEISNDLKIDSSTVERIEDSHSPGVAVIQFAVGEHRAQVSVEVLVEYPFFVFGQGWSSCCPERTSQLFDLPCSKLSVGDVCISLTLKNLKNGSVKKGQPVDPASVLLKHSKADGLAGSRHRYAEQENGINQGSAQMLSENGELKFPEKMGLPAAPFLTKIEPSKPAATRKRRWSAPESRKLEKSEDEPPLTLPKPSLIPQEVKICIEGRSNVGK
Description: SPR.

What is called Kd is the concentration at which binding is half-saturated. The low end stands for higher affinity, the high end for lower affinity.

B1: PQBP5-Δ5 (protein)
chain: MQVSSLNEVKIYSLSCGKSLPEWLSDRKKRALQKKDVDVRRRIELIQDFEMPTVCTTIKVSKDGQYILATGTYKPRVRCYDTYQLSLKFERCLDSEVVTFEILSDDYSKIVFLHNDRYIEFHSQSGFYYKTRIPKFGRDFSYHYPSCDLYFVGASSEVYRLNLEQGRYLNPLQTDAAENNVCDINSVHGLFATGTIEGRVECWDPRTRNRVGLLDCALNSVTADSEINSLPTISALKFNGALTMAVGTTTGQVLLYDLRSDKPLLVKDHQYGLPIKSVHFQDSLDLILSADSRIVKMWNKNSGKIFTSLEPEHDLNDVCLYPNSGMLLTANETPKMGIYYIPVLGPAPRWCSFLDNLTEELEENPESTVYDDYKFVTKKDLENLGLTHLIGSPFLRAYMHGFFMDIRLYHKVKLMVNPFAYEEYRKDKIRQKIEETRAQRVQLKKLPKVNKELALKLIEEEEEKQKSTWKKKVKSLPNILT
modifications: Delta number assigned from the order of the constructs in the methods (fifth: 1-481, lacking NUC153); tag omitted. Exon 1 ends at ...LHRP, which agrees with the printed Htt reverse primer. The entry carries 21Q (18-38); one Q is removed to give the 20Q of the assayed protein name. The plasmid is called 17Q, so the repeat count is ambiguous. GST omitted.
For B1, the affinity with GST-Htt-20Q, expressed as Kd, was 0.354 nM.

B2: full-length human PQBP5 (His-tag fusion protein) (natural protein)
chain: MQVSSLNEVKIYSLSCGKSLPEWLSDRKKRALQKKDVDVRRRIELIQDFEMPTVCTTIKVSKDGQYILATGTYKPRVRCYDTYQLSLKFERCLDSEVVTFEILSDDYSKIVFLHNDRYIEFHSQSGFYYKTRIPKFGRDFSYHYPSCDLYFVGASSEVYRLNLEQGRYLNPLQTDAAENNVCDINSVHGLFATGTIEGRVECWDPRTRNRVGLLDCALNSVTADSEINSLPTISALKFNGALTMAVGTTTGQVLLYDLRSDKPLLVKDHQYGLPIKSVHFQDSLDLILSADSRIVKMWNKNSGKIFTSLEPEHDLNDVCLYPNSGMLLTANETPKMGIYYIPVLGPAPRWCSFLDNLTEELEENPESTVYDDYKFVTKKDLENLGLTHLIGSPFLRAYMHGFFMDIRLYHKVKLMVNPFAYEEYRKDKIRQKIEETRAQRVQLKKLPKVNKELALKLIEEEEEKQKSTWKKKVKSLPNILTDDRFKVMFENPDFQVDEESEEFRLLNPLVSKISEKRKKKLRLLEQQELREKEEEEEPEGKPSDAESSESSDDEKAWVEEVRKQRRLLQQEEKVKRQERLKEDQQTVLKPQFYEIKAGEEFRSFKDSATKQKLMNKTLEDRLKIEAKNGTLSVSDTTVGSKQLTFTLKRSEQQKKQQEAEKLHRQERKRLRRSAGHLKSRHKRGRSFH
modifications: Exon 1 ends at ...LHRP, which agrees with the printed Htt reverse primer. The entry carries 21Q (18-38); one Q is removed to give the 20Q of the assayed protein name. The plasmid is called 17Q, so the repeat count is ambiguous. GST omitted.
B2: in the assay with GST-Htt-20Q, the affinity, expressed as Kd, was 0.0308 nM.

B3: PQBP5-Δ3 (protein)
chain: IPVLGPAPRWCSFLDNLTEELEENPESTVYDDYKFVTKKDLENLGLTHLIGSPFLRAYMHGFFMDIRLYHKVKLMVNPFAYEEYRKDKIRQKIEETRAQRVQLKKLPKVNKELALKLIEEEEEKQKSTWKKKVKSLPNILTDDRFKVMFENPDFQVDEESEEFRLLNPLVSKISEKRKKKLRLLEQQELREKEEEEEPEGKPSDAESSESSDDEKAWVEEVRKQRRLLQQEEKVKRQERLKEDQQTVLKPQFYEIKAGEEFRSFKDSATKQKLMNKTLEDRLKIEAKNGTLSVSDTTVGSKQLTFTLKRSEQQKKQQEAEKLHRQERKRLRRSAGHLKSRHKRGRSFH
modifications: Delta number assigned from the order of the constructs in the methods; initiator Met from the primer and tag omitted.
For B3, the Kd with GST-Atxn1-33Q amounted to 255 nM.

B4: PQBP5-Δ3 (protein)
chain: B3 chain
modifications: Delta number assigned from the order of the constructs in the methods; initiator Met from the primer and tag omitted. Exon 1 ends at ...LHRP, which agrees with the printed Htt reverse primer. The entry carries 21Q (18-38); one Q is removed to give the 20Q of the assayed protein name. The plasmid is called 17Q, so the repeat count is ambiguous. GST omitted.
For the molecule B4, the Kd in the assay with GST-Htt-20Q was 402 nM.
